B1: IL4R-CHI-17 (antibody, V domains shown)
VH: QAYLQQSGAELVRPGASVKMSCKASGYTFTSYNMHWAKQTPRQGLEWIGSIYPGNGDTSYNQKFKGKATLTVDKSSSTAYMQLSSLTSEDSAVYFCARGGRLRRGDWFAYWGQGTLVTVSA
VL: DIQMTQSPASLSASVGETVTITCRASENIYSYLIWYQQKQGKSPQLLVYDAKTLAEGVPSRFSGSGSGSQFSLKINSLQPEDFGTYYCQHHYGTPLTFGGGTKLELK
B2: IL4R-CHI-04 (antibody, V domains shown)
VH: DVQLQESGPGLVKPSQSLSLTCTVTGYSITSDYAWNWIRQFPGNKLEWMGYISYSGSSSYNPSLKSRISITRDTSKNQFFLQLNSVTTDDTATYYCAGGGLRRRGLFDYWGQGTTLTVSS
VL: QIVLSQSPAILSASPGEKVTMTCRATSSVTYMHWYQQKPGSSPKPWIYATSNLASGVPARFSGSGSGTSYSLTISRVEAEDTATYYCQQWSSIPLTFGAGTKLELK
B3: IL4R-CHI-07 (antibody, V domains shown)
VH: QVQLQQSGAELVKPGASVKLSCKASGYTFTEYTIHWVKQRSGQGLEWIGWFYPGRGSIKYNEKFKDKATLTADKSSSTVYMELSRLTSEDSAVYFCTRHEYRGSNYAMDYWGQGTSVTVSS
VL: DVLMTQTPLSLPVSLGDQASISCRSSQSIVHSSGNTYLQWYLQKPGQSPKLLIYKVSNRFSGVPDRFSGSGSGTDFTLKISRVEAEDLGVYYCFQGSHVPPTFGGGTKLEIK
B4: IL4R-CHI-13 (antibody, V domains shown)
VH: EVQLQQSGPVLVKPGASVKMSCKASGYTFTDYYMNWVKQRHGKSLDWIGTINPYNGGTGYNQKFKGKATLTVDKSSSTAYMELNSLTSEDSAVYFCARSLLRRRGAMDYWGQGTSVTVSS
VL: DIVLTQSPASLVVSLGQRATISCRASKSVSTSGYGYIHWYRQKPGQPPKLLIYLVSNLESGVPARFSGSGSGTDFTLNIHPVEEEDAATYYCQHIRELYTFGGGTKLEIK
B5: IL4R-CHI-14 (antibody, V domains shown)
VH: EVMLVESGGGLVKPGGSLKLSCAASGFTFSSYAMSWVRQTPEKRLEWVAIISGGGDSTYYPDSVKGRFTISRDNAKNTLYLQMSSLRSEDTALYFCARLHYWYFDFWGTGTTVTVSS
VL: DIQMTQSSSSFSVSLGDRVTITCKASEDLYNRLAWYQQKPGNAPRLLISGATSLETGVPSRFSGSGSGRDYTLIITSLQTEDVATYYCQQYWRNPYTFGGGTKLEIK

What follows are binders tested against Full-length cynoIL4Rα on monkey IL4Rα-FlpinCHO cells (cynomolgus monkey) (assay: flow cytometry on monkey IL4Rα-FlpinCHO cells).
Chain of Full-length cynoIL4Rα on monkey IL4Rα-FlpinCHO cells (cynomolgus monkey) (A0A2K5 entry or part of it limits assumed): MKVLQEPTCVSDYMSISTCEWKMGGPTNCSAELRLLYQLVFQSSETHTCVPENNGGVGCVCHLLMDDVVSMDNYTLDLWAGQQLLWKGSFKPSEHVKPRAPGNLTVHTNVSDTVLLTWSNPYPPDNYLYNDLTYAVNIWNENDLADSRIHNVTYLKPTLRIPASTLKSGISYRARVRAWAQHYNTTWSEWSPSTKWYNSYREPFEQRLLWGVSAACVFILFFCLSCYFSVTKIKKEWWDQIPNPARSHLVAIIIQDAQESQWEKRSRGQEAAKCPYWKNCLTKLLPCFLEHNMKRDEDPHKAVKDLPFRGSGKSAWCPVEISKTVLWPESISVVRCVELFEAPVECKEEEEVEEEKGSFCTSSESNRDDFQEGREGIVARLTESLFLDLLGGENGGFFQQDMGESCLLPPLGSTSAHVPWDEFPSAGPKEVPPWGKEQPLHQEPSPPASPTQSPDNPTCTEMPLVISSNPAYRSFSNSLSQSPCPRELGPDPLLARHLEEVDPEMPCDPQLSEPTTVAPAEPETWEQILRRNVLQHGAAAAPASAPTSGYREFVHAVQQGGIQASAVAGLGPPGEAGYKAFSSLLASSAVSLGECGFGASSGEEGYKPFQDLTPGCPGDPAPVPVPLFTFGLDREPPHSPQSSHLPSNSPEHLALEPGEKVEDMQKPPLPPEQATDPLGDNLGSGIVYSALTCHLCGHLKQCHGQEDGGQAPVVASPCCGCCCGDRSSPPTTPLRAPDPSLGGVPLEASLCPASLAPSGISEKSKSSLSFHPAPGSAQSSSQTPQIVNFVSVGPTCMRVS

Emax	Binder
68	B1
82	B2
58	B3
74	B4
97	B5

Source: patent EP4755920A1
